Source: patent US10562947B2, “Compositions and methods for preventing or treating diseases, conditions or processes characterized by aberrant fibroblast proliferation and extracellular matrix deposition” (MOERAE MATRIX, INC., priority 2011, dated 2020)

Assays:
Experiment in all cases: Kinase Profiling Assay
Format in all cases: biochemical
Conditions in all cases: 100 μM peptide
DYRK2(h) = target: T1, DYRK2(h) (Homo sapiens, UniProt Q92630)
T1 sequence (Q92630 1-601): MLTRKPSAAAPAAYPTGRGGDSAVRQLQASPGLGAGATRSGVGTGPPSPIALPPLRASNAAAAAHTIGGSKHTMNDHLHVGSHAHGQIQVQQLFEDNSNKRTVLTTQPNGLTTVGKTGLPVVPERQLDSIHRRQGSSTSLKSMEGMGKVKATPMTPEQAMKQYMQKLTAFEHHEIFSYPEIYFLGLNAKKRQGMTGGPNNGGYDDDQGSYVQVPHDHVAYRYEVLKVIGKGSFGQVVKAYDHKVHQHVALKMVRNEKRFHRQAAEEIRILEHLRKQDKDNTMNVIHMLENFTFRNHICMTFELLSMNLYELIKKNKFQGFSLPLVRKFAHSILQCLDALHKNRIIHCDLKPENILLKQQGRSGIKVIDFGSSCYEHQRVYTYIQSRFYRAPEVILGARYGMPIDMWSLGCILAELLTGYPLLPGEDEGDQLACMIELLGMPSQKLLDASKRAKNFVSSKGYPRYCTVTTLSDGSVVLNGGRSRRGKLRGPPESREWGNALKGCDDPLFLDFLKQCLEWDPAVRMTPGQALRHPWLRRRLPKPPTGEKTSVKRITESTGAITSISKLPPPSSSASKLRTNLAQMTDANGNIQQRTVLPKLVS
Summary of the method: (§1)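 All 266 human kinases of a profiling service were assayed in duplicate to establish whether MK2 inhibitory peptides act specifically.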

EphB2(h) = target: T2, EphB2(h) (Homo sapiens, UniProt P29323)
T2 sequence (P29323 19-1055): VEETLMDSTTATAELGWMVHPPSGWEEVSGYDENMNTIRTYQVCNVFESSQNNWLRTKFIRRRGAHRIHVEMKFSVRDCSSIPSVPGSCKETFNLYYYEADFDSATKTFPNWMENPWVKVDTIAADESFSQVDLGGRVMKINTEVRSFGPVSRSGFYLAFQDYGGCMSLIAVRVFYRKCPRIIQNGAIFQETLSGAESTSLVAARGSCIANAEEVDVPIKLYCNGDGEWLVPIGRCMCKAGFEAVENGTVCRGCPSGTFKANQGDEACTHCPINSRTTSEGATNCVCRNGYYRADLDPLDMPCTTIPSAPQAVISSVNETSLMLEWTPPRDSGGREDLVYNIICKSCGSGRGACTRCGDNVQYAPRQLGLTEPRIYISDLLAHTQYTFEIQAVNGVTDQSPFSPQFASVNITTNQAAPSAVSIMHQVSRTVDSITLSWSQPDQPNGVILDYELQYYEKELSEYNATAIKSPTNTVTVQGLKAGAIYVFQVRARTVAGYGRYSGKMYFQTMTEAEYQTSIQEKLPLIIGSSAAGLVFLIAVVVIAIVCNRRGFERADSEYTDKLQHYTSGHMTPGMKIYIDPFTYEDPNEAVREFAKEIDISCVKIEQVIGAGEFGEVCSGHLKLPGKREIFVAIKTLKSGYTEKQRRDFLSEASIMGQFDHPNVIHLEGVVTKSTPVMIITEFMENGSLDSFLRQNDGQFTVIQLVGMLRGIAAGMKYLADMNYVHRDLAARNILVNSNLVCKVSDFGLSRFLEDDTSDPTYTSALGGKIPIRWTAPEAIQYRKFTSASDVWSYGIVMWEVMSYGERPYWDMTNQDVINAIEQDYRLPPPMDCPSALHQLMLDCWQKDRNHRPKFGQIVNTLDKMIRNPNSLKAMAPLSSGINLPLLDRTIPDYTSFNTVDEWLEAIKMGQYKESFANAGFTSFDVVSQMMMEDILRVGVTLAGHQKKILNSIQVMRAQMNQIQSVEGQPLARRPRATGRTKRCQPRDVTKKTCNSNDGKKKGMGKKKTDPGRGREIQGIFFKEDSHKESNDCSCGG
Summary of the method: as §1

Hck(h) = target: T3, Hck(h) (Homo sapiens, UniProt P08631)
T3 construct: purchased Millipore
Summary of the method: as §1

IRR(h) = target: T4, IRR(h) (Homo sapiens, UniProt P14616)
T4 construct: purchased Millipore
Summary of the method: as §1

LOK(h) = LOK(h) (Homo sapiens, UniProt O94804)
Summary of the method: as §1

MAPK2(h) = MAPK2(h) (Homo sapiens, UniProt P28482)
Summary of the method: as §1

Met(D1246H)(h) = Met(D1246H)(h) (Homo sapiens, UniProt P08581, D1228H)
Summary of the method: as §1

PKCβII(h) = PKCβII(h) (Homo sapiens, UniProt P05771)
Summary of the method: as §1

PKCι(h) = target: T5, PKCι(h) (Homo sapiens, UniProt P41743)
T5 construct: purchased Millipore (IC50 Profiler Express service)
T5 sequence (P41743 1-596): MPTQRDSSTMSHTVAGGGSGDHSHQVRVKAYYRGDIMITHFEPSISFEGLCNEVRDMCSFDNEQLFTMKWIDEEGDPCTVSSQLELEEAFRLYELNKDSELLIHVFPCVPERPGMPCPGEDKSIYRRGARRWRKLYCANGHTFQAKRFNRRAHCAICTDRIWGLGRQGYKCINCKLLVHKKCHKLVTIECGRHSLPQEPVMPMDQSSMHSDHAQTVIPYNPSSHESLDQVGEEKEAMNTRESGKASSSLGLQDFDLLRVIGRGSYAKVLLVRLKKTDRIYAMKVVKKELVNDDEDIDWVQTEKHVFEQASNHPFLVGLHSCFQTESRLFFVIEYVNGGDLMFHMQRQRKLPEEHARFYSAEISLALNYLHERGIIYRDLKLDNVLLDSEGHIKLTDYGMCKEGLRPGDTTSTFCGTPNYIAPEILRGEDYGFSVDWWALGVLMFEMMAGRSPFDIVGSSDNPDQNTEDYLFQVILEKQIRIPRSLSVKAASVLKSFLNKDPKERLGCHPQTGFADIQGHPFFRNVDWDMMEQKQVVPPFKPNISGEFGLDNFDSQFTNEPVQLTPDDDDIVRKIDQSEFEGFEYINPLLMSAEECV
Summary of the method: as §1

Ret(V804L)(h) = target: T6, Ret(V804L)(h) (Homo sapiens, UniProt P07949, V804L)
T6 construct: purchased Millipore (IC50 Profiler Express service)
Summary of the method: as §1

FAK(h) = FAK(h) (Homo sapiens, UniProt Q05397)
Summary of the method: as §1

Chain of MAPK2(h) (P28482 whole entry): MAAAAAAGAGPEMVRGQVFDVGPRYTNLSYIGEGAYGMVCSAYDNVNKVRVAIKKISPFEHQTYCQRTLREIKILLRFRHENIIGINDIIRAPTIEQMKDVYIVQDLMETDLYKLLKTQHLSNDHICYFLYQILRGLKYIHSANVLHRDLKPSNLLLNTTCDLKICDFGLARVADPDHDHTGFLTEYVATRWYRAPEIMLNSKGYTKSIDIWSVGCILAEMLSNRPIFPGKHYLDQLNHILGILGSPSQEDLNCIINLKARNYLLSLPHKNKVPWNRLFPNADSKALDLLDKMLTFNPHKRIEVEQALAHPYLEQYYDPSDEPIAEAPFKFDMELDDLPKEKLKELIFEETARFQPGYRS
T4 sequence (P14616 27-1297): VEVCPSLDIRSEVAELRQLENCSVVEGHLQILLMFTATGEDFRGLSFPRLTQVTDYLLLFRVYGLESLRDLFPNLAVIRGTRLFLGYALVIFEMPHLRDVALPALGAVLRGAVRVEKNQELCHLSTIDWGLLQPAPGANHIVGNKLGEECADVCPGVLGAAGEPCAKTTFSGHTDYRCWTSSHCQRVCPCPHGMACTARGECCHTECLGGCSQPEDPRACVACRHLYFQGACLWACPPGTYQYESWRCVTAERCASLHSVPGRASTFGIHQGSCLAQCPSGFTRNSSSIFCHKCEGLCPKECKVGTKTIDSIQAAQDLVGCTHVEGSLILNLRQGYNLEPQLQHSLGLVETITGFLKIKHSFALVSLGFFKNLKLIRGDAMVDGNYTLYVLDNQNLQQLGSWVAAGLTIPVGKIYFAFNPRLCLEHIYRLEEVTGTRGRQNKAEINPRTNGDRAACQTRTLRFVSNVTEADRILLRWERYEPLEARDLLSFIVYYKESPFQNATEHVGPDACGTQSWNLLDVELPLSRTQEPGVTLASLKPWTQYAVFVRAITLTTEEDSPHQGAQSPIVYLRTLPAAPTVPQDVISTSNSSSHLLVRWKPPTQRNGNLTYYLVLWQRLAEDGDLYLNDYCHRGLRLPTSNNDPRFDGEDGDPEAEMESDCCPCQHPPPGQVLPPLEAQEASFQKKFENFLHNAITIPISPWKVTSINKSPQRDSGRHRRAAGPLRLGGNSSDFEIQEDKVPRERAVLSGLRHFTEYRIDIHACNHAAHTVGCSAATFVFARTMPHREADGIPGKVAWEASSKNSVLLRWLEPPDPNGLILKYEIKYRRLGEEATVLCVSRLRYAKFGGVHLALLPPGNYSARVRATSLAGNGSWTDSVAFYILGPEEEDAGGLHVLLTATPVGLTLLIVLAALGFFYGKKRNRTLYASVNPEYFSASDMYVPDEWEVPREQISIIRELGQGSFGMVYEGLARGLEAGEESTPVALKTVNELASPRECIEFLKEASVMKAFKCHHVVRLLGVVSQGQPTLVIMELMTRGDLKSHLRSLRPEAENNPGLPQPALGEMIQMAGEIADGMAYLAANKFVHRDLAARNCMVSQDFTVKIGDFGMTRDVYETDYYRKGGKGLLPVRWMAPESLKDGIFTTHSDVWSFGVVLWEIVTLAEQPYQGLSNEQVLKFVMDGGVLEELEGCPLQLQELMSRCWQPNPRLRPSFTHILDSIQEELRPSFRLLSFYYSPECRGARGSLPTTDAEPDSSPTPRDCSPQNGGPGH
Chain of PKCβII(h) (P05771 1-673 isoform P05771-2): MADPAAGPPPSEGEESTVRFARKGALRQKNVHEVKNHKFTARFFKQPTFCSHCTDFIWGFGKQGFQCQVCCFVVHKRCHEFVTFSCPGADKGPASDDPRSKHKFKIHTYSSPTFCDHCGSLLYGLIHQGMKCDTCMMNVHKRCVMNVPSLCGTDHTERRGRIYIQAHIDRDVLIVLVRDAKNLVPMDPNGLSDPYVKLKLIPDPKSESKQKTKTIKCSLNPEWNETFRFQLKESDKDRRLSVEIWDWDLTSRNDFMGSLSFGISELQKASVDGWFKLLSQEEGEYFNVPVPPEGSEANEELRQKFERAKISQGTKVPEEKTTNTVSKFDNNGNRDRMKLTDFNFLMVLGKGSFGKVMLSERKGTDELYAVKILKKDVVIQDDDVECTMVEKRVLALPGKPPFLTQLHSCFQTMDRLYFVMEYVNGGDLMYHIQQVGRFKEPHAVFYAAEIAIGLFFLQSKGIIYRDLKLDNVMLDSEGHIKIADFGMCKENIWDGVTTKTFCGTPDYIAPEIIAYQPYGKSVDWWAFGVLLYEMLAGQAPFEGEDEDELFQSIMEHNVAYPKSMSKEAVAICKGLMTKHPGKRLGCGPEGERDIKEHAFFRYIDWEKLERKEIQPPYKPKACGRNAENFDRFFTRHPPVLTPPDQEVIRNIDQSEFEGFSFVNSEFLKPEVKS
T3 sequence (P08631 whole entry): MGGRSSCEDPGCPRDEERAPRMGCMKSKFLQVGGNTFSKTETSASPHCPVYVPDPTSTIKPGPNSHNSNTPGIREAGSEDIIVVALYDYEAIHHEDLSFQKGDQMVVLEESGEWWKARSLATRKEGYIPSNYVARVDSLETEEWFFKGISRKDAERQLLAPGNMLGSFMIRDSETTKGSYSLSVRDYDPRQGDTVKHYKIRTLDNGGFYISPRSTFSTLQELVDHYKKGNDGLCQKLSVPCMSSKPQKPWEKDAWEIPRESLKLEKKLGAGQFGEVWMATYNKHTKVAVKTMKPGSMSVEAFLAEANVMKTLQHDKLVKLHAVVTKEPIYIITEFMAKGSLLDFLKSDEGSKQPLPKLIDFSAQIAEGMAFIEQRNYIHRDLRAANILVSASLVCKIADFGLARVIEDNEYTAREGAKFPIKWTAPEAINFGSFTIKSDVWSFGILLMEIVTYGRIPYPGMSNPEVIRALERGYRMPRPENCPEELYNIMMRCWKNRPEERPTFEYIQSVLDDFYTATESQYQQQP
Chain of FAK(h) (Q05397 whole entry): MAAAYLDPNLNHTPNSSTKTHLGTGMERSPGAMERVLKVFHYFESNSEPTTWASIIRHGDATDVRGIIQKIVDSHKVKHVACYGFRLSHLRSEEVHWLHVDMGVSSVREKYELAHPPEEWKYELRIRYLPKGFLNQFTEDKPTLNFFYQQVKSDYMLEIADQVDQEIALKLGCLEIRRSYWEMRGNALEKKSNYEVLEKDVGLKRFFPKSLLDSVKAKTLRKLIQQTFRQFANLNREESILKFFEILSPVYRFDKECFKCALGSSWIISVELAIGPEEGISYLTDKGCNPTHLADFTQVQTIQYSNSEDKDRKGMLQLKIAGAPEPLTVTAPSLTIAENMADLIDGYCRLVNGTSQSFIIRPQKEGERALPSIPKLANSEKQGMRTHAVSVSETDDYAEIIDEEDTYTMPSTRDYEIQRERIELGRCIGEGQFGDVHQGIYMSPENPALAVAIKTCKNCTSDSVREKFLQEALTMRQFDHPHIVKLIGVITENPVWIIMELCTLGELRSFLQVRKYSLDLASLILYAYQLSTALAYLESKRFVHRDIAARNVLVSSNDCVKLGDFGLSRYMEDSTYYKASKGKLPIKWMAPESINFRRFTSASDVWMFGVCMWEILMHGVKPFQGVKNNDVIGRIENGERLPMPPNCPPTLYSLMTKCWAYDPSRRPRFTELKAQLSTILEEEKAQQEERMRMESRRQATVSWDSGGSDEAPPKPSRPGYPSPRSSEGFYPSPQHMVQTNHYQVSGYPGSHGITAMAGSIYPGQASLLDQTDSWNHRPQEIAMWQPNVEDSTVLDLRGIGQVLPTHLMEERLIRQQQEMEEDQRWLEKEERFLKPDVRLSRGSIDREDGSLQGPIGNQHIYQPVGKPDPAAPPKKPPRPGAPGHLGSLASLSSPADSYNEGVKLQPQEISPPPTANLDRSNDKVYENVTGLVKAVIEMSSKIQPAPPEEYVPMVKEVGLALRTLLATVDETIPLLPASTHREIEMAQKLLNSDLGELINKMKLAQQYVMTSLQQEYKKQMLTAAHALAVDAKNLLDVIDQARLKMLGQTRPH
Chain of LOK(h) (O94804 whole entry): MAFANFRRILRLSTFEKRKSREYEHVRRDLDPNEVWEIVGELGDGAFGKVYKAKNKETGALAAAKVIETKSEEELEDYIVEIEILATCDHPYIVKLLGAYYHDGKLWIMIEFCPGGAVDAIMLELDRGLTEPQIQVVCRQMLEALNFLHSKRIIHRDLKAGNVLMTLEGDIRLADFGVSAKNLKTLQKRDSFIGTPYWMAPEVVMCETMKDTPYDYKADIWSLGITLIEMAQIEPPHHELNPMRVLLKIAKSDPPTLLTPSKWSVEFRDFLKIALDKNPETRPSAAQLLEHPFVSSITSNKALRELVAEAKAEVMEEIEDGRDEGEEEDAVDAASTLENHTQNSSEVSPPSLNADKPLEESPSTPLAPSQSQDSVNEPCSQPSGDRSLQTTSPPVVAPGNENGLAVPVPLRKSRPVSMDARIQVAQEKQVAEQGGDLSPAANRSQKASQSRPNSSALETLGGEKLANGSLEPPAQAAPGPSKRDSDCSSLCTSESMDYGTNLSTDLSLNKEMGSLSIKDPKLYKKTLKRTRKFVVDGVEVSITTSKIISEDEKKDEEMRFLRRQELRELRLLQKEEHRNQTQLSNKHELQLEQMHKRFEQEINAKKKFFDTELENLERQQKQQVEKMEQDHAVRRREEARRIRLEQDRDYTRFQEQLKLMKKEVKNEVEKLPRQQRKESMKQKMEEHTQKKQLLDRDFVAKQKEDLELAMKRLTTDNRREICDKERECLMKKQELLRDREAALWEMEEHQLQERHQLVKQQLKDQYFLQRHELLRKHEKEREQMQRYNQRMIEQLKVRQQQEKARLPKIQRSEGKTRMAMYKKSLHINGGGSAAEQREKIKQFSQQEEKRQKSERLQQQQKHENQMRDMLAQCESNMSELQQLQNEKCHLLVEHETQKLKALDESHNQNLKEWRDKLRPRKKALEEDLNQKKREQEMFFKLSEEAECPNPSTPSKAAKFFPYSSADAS

FAKLAARLYRKALARQLGVAA [MMI-0300]
DYRK2(h) % activity (DYRK2(h)): 155%
EphB2(h) % activity (EphB2(h)): 18%
Hck(h) % activity (Hck(h)): 72%
IRR(h) % activity (IRR(h)): 8%
LOK(h) % activity (LOK(h)): 37%
MAPK2(h) % activity (MAPK2(h)): 98%
Met(D1246H)(h) % activity (Met(D1246H)(h)): 125%
PKCβII(h) % activity (PKCβII(h)): 82%
PKCι(h) % activity (PKCι(h)): 68%
Ret(V804L)(h) % activity (Ret(V804L)(h)): 79%

KAFAKLAARLYRKALARQLGVAA [MMI-0400]
DYRK2(h) % activity (DYRK2(h)): 195%
EphB2(h) % activity (EphB2(h)): 22%
FAK(h) % activity (FAK(h)): 96%
Hck(h) % activity (Hck(h)): 72%
IRR(h) % activity (IRR(h)): 8%
LOK(h) % activity (LOK(h)): 18%
MAPK2(h) % activity (MAPK2(h)): 93%
Met(D1246H)(h) % activity (Met(D1246H)(h)): 68%
PKCβII(h) % activity (PKCβII(h)): 75%
PKCι(h) % activity (PKCι(h)): 46%
Ret(V804L)(h) % activity (Ret(V804L)(h)): 73%

YARAAARQARAKALNRQLGVA (Mammalian) [MMI-0200]
DYRK2(h) % activity (DYRK2(h)): 142%
EphB2(h) % activity (EphB2(h)): 128%
FAK(h) % activity (FAK(h)): 110%
IRR(h) % activity (IRR(h)): 69%
LOK(h) % activity (LOK(h)): 67%
Met(D1246H)(h) % activity (Met(D1246H)(h)): 139%
PKCβII(h) % activity (PKCβII(h)): 100%
PKCι(h) % activity (PKCι(h)): 97%
Ret(V804L)(h) % activity (Ret(V804L)(h)): 100%

HRRIKAWLKKIKALARQLGVAA (Mammalian) [MMI-0500]
DYRK2(h) % activity (DYRK2(h)): 127%
EphB2(h) % activity (EphB2(h)): 70%
FAK(h) % activity (FAK(h)): 94%
Hck(h) % activity (Hck(h)): 78%
IRR(h) % activity (IRR(h)): 10%
LOK(h) % activity (LOK(h)): 7%
MAPK2(h) % activity (MAPK2(h)): 60%
Met(D1246H)(h) % activity (Met(D1246H)(h)): 150%
PKCβII(h) % activity (PKCβII(h)): 3%
PKCι(h) % activity (PKCι(h)): 7%
Ret(V804L)(h) % activity (Ret(V804L)(h)): 20%
